# Measured values as given in the RNAGym collection of RNA variant scans (doi:10.7554/elife.90254).
# B1: LINE1-full (parent)
# chain: UACGUAGGUGGUUUUCCCCUGAUAGUGCUAAGGGGGCCUGGAAGUUUGGACUGGGCAGAGCUCAACACAGCGUGGCAAAGUGGCUGUGGCUAGACUGCCUCUCUGGAUUCCUCGUCACUCAGCAGGGCAUCUCUGAGAGAAAUGCC
# Variants of: B1
# Assay: self-cleavage, relative activity (ratio to wild type); higher = more cleavage; in vitro, sequencing; the parent is a self-cleaving ribozyme
row,Variant,self-cleavage
1,UACGUAGGUGGUUUUCCCCUGAUAGUGCUAAGGGGGCCUGGAAGUUUGGACUGGGCAGAGCUCAACACAGCGUGGCGAAGUGGCUGUGGCUAGACUGCCUCUCUGGGUUCCUCGUCACUCAGCAGGGCAUCUCUGAGAGAAAUGCC,2.08
2,UACGUAGGUGGUUUUCCCCUGAUAGUGCUAAGGGGGCCUGGAAGUUUGGACUGGGCAGAGCUCAACACAGCGUGGCGAAGUGGCUGUGGCUAGACUGCCUCUCUGGAUUCCUCGUCACUCAGCAGGGGAUCUCUGAGAGAAAUGCC,1.86
3,UACGUAGGUGGUUUUCCCCUGAUAGUGCUAAGGGGGCCUGGAAGUUUGGACUGGGCAGAGCUCAACACAGCGUGGCGAAGUGGCUGUGGCUAGACUGCCUCUCUGGAUUCCUUGUCACUCAGCAGGGCAUCUCUGAGAGAAAUGCC,2.28
4,UACGUAGGUGGUUUUCCCCUGAUAGUGCUAAGGGGGCCUGGAAGUUUGGACUGGGCAGAGCUCAACACAGCGUGGCGAAGUGGCUGUGGCUAGACUGCCUCUCUGGAUUCCUAGUCACUCAGCAGGGCAUCUCUGAGAGAAAUGCC,2.1
5,UACGUAGGUGGUUUUCCCCUGAUAGUGCUAAGGGGGCCUGGAAGUUUGGACUGGGCAGAGCUCAACACAGCGUGGCGAAGUGGCUGUGGCUAGACUGCCUCUCUGGAUUCCUCGUCACUCAGCAGGGCAUCUCUGAGGGAAAUGCC,2.3
6,UACGUAGGUGGUUUUCCCCUGAUAGUGCUAAGGGGGCCUGGAAGUUUGGACUGGGCAGAGCUCAACACAGCGUGGCGAAGUGGCUGUGGCUAGACUGCCUCUUUGGAUUCCUCGUCACUCAGCAGGGCAUCUCUGAGAGAAAUGCC,1.99
7,UACGUAGGUGGUUUUCCCCUGAUAGUGCUAAGGGGGCCUGGAAGUUUGGACUGGGCAGAGCUCAACACAGCGUGGCGAAGUGGCUGUGGCUAGACUGCCUCUAUGGAUUCCUCGUCACUCAGCAGGGCAUCUCUGAGAGAAAUGCC,2.24
8,UACGUAGGUGGUUUUCCCCUGAUAGUGCUAAGGGGGCCUGGAAGUUUGGACUGGGCAGAGCUCAACACAGCGUGGCGAAGUGGCUGUGGCUAGACUGCCUCUCUGGAUUCCUCGUCACUCAGCAGGGCGUCUCUGAGAGAAAUGCC,2.21
9,UACGUAGGUGGUUUUCCCCUGAUAGUGCUAAGGGGGCCUGGAAGUUUGGACUGGGCAGAGCUCAACACAGCGUGGCGAAGUGGCUGUGGCUAGACUGCCUCUCUGGAUUUCUCGUCACUCAGCAGGGCAUCUCUGAGAGAAAUGCC,0.71
10,UACGUAGGUGGUUUUCCCCUGAUAGUGCUAAGGGGGCCUGGAAGUUUGGACUGGGCAGAGCUCAACACAGCGUGGCGAAGUGGCUGUGGCUAGACUGCCUCUCUGGAUUCCUCGUCGCUCAGCAGGGCAUCUCUGAGAGAAAUGCC,2.32
11,UACGUAGGUGGUUUUCCCCUGAUAGUGCUAAGGGGGCCUGGAAGUUUGGACUGGGCAGAGCUCAACACAGCGUGGCGAAGUGGCUGUGGCUAGACUGACUCUCUGGAUUCCUCGUCACUCAGCAGGGCAUCUCUGAGAGAAAUGCC,0.23
12,UACGUAGGUGGUUUUCCCCUGAUAGUGCUAAGGGGGCCUGGAAGUUUGGACUGGGCAGAGCUCAACACAGCGUGGCGAAGUGGCUGUGGCUAGACUGGCUCUCUGGAUUCCUCGUCACUCAGCAGGGCAUCUCUGAGAGAAAUGCC,0.21
13,UACGUAGGUGGUUUUCCCCUGAUAGUGCUAAGGGGGCCUGGAAGUUUGGACUGGGCAGAGCUCAACACAGCGUGGCGAAGUGGCUGUGGCUAGACUGCCUCUCUGGAUUCCUCGUCACUCAGCGGGGCAUCUCUGAGAGAAAUGCC,1.9
14,UACGUAGGUGGUUUUCCCCUGAUAGUGCUAAGGGGGCCUGGAAGUUUGGACUGGGCAGAGCUCAACACAGCGUGGCGAAGUGGCUGUGGCUAGACUGCCUCUCUGGAUUCCUCGUCACUCAGCUGGGCAUCUCUGAGAGAAAUGCC,1.84
15,UACGUAGGUGGUUUUCCCCUGAUAGUGCUAAGGGGGCCUGGAAGUUUGGACUGGGCAGAGCUCAACACAGCGUGGCGAAGUGGCUGUGGCUAGACUGCCUCUCUGGAUUCCUCGUCACUCAGCAGGGCAUCUCUGAGAGAUAUGCC,1.89
16,UACGUAGGUGGUUUUCCCCUGAUAGUGCUAAGGGGGCCUGGAAGUUUGGACUGGGCAGAGCUCAACACAGCGUGGCGAAGUGGCUGUGGCUAGACUGCCUCUCUGGAUUCCUCGUCACUCAGCAGGGCAUCUCUGAGAGAGAUGCC,2.25
17,UACGUAGGUGGUUUUCCCCUGAUAGUGCUAAGGGGGCCUGGAAGUUUGGACUGGGCAGAGCUCAACACAGCGUGGCGAAGUGGCUGUGGCUAGACUGCCUCUCUGGAUUCCUCGUCACUCGGCAGGGCAUCUCUGAGAGAAAUGCC,1.69
18,UACGUAGGUGGUUUUCCCCUGAUAGUGCUAAGGGGGCCUGGAAGUUUGGACUGGGCAGAGCUCAACACAGCGUGGCGAAGUGGCUGUGGAUAGACUGCCUCUCUGGAUUCCUCGUCACUCAGCAGGGCAUCUCUGAGAGAAAUGCC,0.03
19,UACGUAGGUGGUUUUCCCCUGAUAGUGCUAAGGGGGCCUGGAAGUUUGGACUGGGCAGAGCUCAACACAGCGUGGCGAAGUGGCUGUGGCUAGACUGCCUCUCUGGAUUCCUCGUCACUCAGCAGGGCAUCUCUGUGAGAAAUGCC,1.92
20,UACGUAGGUGGUUUUCCCCUGAUAGUGCUAAGGGGGCCUGGAAGUUUGGACUGGGCAGAGCUCAACACAGCGUGGCGAAGUGGCUGUGGCUAGACUGCCUCUCUGGAUUCCUCGUCACUCAGCAGGGCAUCUCUGGGAGAAAUGCC,2.64
